Patent US20160068605A1 (Janssen / Centocor, published 2016)

Legend:
[1] = molecular target: T1, Recombinant human CD123 SP1 ECD-His tag protein (human, UniProt P26951 20-305); assay: SPR Biacore T200, captured antibody
T1 construct: bought from R&D Systems (#301-R3/CF); biotinylated for some assays; also called rhCD123 SP1; huCD123 ECD SP1
T1 sequence: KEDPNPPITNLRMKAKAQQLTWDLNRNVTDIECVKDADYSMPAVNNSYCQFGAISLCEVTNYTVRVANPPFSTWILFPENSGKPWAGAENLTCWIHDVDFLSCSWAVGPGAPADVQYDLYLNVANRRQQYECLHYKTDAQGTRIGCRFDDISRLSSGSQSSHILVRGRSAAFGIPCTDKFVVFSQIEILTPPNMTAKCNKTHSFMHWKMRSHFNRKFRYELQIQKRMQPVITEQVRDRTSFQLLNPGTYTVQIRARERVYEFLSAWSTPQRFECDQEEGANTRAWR
Description: (§1) Kinetic studies were performed at 25° C. using a Biacore T200 (Biacore, Inc., now part of GE Healthcare). […] The carboxymethyl groups of dextran were activated with N-Ethyl-N′-(3-Dimethylaminopropyl)carbodiimide (EDC) and N-hydroxysuccinimide (NHS). The anti-Fc antibody was coupled at pH 4.5 in 10 mM sodium acetate. Any remaining reactive sites on the surface were blocked by reaction with ethanolamine. […] 40-70 RU of antibody were captured. […] Association data was collected for 2 min followed by 10 min of dissociation. The surface was regenerated with 30 μL of 100 mM H3PO4 100 μL/min, followed by 50 mM NaOH. The samples for kinetic analysis were prepared in PBS-based buffer (D-PBS containing 3 mM EDTA and 0.005% surfactant P20). Data reported is the difference in SPR signal between the flow cell containing the captured antibody and a reference cell without captured antibody. Additional instrumental contributions to the signal were removed by subtraction of the data from the blank injection from the reference-subtracted signal. Data were analyzed by fitting association and dissociation phases at all concentrations (global fit) with a 1:1 binding model using the BIAevaluation software (BIAcore, Inc.).

[2] = molecular target: T2, Recombinant human CD123 SP2 ECD protein (human, UniProt P26951 101-303); assay: SPR Biacore T200, captured antibody
T2 construct: also called rhCD123 SP2; CD123 ECD SP2
T2 sequence: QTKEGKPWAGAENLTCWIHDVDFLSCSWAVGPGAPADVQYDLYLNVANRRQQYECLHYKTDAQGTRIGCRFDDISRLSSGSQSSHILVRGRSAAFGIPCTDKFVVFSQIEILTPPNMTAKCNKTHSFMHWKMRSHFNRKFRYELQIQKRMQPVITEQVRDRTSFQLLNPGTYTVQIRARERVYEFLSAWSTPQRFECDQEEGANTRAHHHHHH
Description: as §1

[3] = molecular target: T3, cell-surface CD3 epsilon on primary human T cells (human, UniProt P07766 23-207); assay: competition flow cytometry on primary human T cells (Human Donor 10357); competitor displaced: Alexa Fluor 488-labelled CD3B146
T3 construct: whole, on cells; part of the CD3/TCR complex on the cells
From the text: (§2) The format involved competition binding using a fixed concentration of labeled anti-CD3 mAb of known affinity and increasing concentrations of unlabeled test Abs (Ashkenazi A et al. PNAS: 88:10535, 1991.).

[4] = molecular target: T4, cell-surface CD3 epsilon on primary cynomolgus T cells (cynomolgus monkey, UniProt Q95LI5 22-198); assay: flow cytometry competition with labeled CD3B146 on T cells
T4 construct: whole, on cells; also called cynomolgus CD3e; Cyno T-cells
From the text: as §2

[5] = molecular target: T3, cell-surface CD3 epsilon on primary …; assay: as above
From the text: as §2

[6] = molecular target: T5, human CD123 SP1 ECD displayed on pDisplay-transfected cells (human, UniProt P26951 20-305); assay: MSD-CAT on pDisplay cells
T5 construct: ECD anchored on the surface of stably transfected HEK293 cells by the PDGFR transmembrane domain; also called hCD123 SP1 cells; hCD123 cells
T5 sequence: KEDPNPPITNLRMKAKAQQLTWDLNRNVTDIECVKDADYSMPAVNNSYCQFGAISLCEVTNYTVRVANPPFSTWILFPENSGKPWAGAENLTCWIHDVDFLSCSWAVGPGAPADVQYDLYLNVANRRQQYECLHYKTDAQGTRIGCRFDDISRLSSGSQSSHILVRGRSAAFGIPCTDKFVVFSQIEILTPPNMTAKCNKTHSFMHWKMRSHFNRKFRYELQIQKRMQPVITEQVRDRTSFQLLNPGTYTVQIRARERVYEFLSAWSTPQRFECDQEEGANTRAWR
Description: (§3) The MSD-CAT was developed in-house as a label-free method to determine affinity using intact cells in a high throughput format. […] Cell lines used were human pDisplay CD123SP1 and pDisplay CD123SP2. […] These samples were prepared in DMEM Glutamax medium containing 0.05% Azide, 1% BSA, 3 mM EDTA. […] After equilibration the plate was centrifuged for 5 minutes ˜1000 rpm and free anti-CD3 detected on the supernatant. […] The assay buffer was removed without washing and 50 uL/well of 0.7 ug/mL of biotinylated antigen in assay buffer were added to MSD plates and incubated overnight (˜16 hours at 4° C.).

[7] = molecular target: T6, human CD123 SP2 ECD displayed on pDisplay-transfected cells (human, UniProt P26951 101-305); assay: MSD-CAT on pDisplay cells
T6 construct: ECD anchored on the surface of stably transfected HEK293 cells; also called hCD123 SP2 cells; pDisplay CD123SP2
T6 sequence: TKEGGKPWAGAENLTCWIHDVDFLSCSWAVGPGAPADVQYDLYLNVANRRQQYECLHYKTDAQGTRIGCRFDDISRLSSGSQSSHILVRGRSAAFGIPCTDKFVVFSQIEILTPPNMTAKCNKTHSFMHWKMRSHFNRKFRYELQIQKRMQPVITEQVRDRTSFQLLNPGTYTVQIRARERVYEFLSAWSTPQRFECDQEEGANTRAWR
Description: as §3

T4 sequence (Q95LI5 22-198): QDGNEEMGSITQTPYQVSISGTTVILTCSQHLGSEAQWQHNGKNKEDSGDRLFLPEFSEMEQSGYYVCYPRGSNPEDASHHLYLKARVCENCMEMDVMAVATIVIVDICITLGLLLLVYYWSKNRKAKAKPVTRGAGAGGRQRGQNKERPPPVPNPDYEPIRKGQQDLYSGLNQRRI
T3 sequence (P07766 23-207): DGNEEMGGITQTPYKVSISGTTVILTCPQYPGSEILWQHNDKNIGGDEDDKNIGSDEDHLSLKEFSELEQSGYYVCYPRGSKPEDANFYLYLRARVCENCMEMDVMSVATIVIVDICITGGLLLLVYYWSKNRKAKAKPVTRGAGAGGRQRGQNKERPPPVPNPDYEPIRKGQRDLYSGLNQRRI

| Binder | Kd [1] [nM] | koff [1] [s⁻¹] | kon [1] [M⁻¹ s⁻¹] | Kd [2] [nM] | koff [2] [s⁻¹] | kon [2] [M⁻¹ s⁻¹] | IC50 (read off the curve) [3] [nM] | Kd [4] [nM] | Kd [5] [nM] | Kd [6] [nM] | Kd [7] [nM] |
| --- | --- | --- | --- | --- | --- | --- | --- | --- | --- | --- | --- |
| bispecific antibody 9958 Ab (bispecific antibody, human IgG4 S228P, kappa, lambda, F234A L235A, IgG4-PAA; CD3 arm of CD3B220, CD123 arm of I3RB217 (I3RB18)) heavy 1: EVQLVESGGGLVQPGGSLKLSCAASGFTFNTYAMNWVRQASGKGLEWVGRIRSKYNAYATYYAASVKGRFTISRDDSKNTAYLQMNSLKTEDTAVYYCTRHGNFGNSYVSWFAYWGQGTLVTVSSASTKGPSVFPLAPCSRSTSESTAALGCLVKDYFPEPVTVSWNSGALTSGVHTFPAVLQSSGLYSLSSVVTVPSSSLGTKTYTCNVDHKPSNTKVDKRVESKYGPPCPPCPAPEAAGGPSVFLFPPKPKDTLMISRTPEVTCVVVDVSQEDPEVQFNWYVDGVEVHNAKTKPREEQFNSTYRVVSVLTVLHQDWLNGKEYKCKVSNKGLPSSIEKTISKAKGQPREPQVYTLPPSQEEMTKNQVSLTCLVKGFYPSDIAVEWESNGQPENNYKTTPPVLDSDGSFLLYSKLTVDKSRWQEGNVFSCSVMHEALHNHYTQKSLSLSLGK light 1: QAVVTQEPSLTVSPGGTVTLTCRSSTGAVTTSNYANWVQQKPGQAPRGLIGGTNKRAPGTPARFSGSLLGGKAALTLSGAQPEDEAEYYCALWYSNLWVFGGGTKLTVLGQPKAAPSVTLFPPSSEELQANKATLVCLISDFYPGAVTVAWKADSSPVKAGVETTTPSKQSNNKYAASSYLSLTPEQWKSHRSYSCQVTHEGSTVEKTVAPTECS heavy 2: not shown light 2: EIVLTQSPGTLSLSPGERATLSCRASQSVSSSYLAWYQQKPGQAPRLLIYGASSRATGIPDRFSGSGSGTDFTLTISRLEPEDFAVYYCQQDYGFPWTFGQGTKVEIKRTVAAPSVFIFPPSDEQLKSGTASVVCLLNNFYPREAKVQWKVDNALQSGNSQESVTEQDSKDSTYSLSSTLTLSKADYEKHKVYACEVTHQGLSSPVTKSFNRGEC | 1.34 | 0.00079 | 587000 | 0.311 | 0.0011 | 3.57e+06 | ~80 | 29.1 | 43 | 0.121 | 0.538 |
| bispecific antibody Ab 4435 (bispecific antibody, human IgG4 S228P, kappa, lambda, F234A L235A) heavy 1: EVQLLESGGGLVQPGGSLRLSCAASGFTFNTYAMNWVRQAPGKGLEWVARIRSKYNNYATYYADSVKGRFTISRDNSKNTLYLQMNSLRAEDTAVYYCVKHGNFGNSYVSWFAYWGQGTLVTVSSASTKGPSVFPLAPCSRSTSESTAALGCLVKDYFPEPVTVSWNSGALTSGVHTFPAVLQSSGLYSLSSVVTVPSSSLGTKTYTCNVDHKPSNTKVDKRVESKYGPPCPPCPAPEAAGGPSVFLFPPKPKDTLMISRTPEVTCVVVDVSQEDPEVQFNWYVDGVEVHNAKTKPREEQFNSTYRVVSVLTVLHQDWLNGKEYKCKVSNKGLPSSIEKTISKAKGQPREPQVYTLPPSQEEMTKNQVSLTCLVKGFYPSDIAVEWESNGQPENNYKTTPPVLDSDGSFLLYSKLTVDKSRWQEGNVFSCSVMHEALHNHYTQKSLSLSLGK light 1: QTVVTQEPSLTVSPGGTVTLTCRSSTGAVTTSNYANWVQQKPGQAPRGLIGGTNKRAPGTPARFSGSLLGGKAALTLSGVQPEDEAEYYCALWYSNLWVFGGGTKLTVLGQPKAAPSVTLFPPSSEELQANKATLVCLISDFYPGAVTVAWKADSSPVKAGVETTTPSKQSNNKYAASSYLSLTPEQWKSHRSYSCQVTHEGSTVEKTVAPTECS heavy 2: not shown light 2: not shown | 14.3 | 0.0048 | 337000 | 1.74 | 0.005 | 2.88e+06 | – | 139 | 174 | 1.53 | 3.7 |
| bispecific antibody Ab 7959 (bispecific antibody, human IgG4 S228P, kappa, lambda, F234A L235A, IgG4-PAA; CD3 arm of CD3B219, CD123 arm of I3RB217 (I3RB18)) heavy 1: EVQLVESGGGLVQPGGSLRLSCAASGFTFNTYAMNWVRQAPGKGLEWVARIRSKYNNYATYYAASVKGRFTISRDDSKNSLYLQMNSLKTEDTAVYYCARHGNFGNSYVSWFAYWGQGTLVTVSSASTKGPSVFPLAPCSRSTSESTAALGCLVKDYFPEPVTVSWNSGALTSGVHTFPAVLQSSGLYSLSSVVTVPSSSLGTKTYTCNVDHKPSNTKVDKRVESKYGPPCPPCPAPEAAGGPSVFLFPPKPKDTLMISRTPEVTCVVVDVSQEDPEVQFNWYVDGVEVHNAKTKPREEQFNSTYRVVSVLTVLHQDWLNGKEYKCKVSNKGLPSSIEKTISKAKGQPREPQVYTLPPSQEEMTKNQVSLTCLVKGFYPSDIAVEWESNGQPENNYKTTPPVLDSDGSFLLYSKLTVDKSRWQEGNVFSCSVMHEALHNHYTQKSLSLSLGK light 1: QTVVTQEPSLTVSPGGTVTLTCRSSTGAVTTSNYANWVQQKPGQAPRGLIGGTNKRAPGTPARFSGSLLGGKAALTLSGVQPEDEAEYYCALWYSNLWVFGGGTKLTVLGQPKAAPSVTLFPPSSEELQANKATLVCLISDFYPGAVTVAWKADSSPVKAGVETTTPSKQSNNKYAASSYLSLTPEQWKSHRSYSCQVTHEGSTVEKTVAPTECS heavy 2: not shown light 2: EIVLTQSPGTLSLSPGERATLSCRASQSVSSSYLAWYQQKPGQAPRLLIYGASSRATGIPDRFSGSGSGTDFTLTISRLEPEDFAVYYCQQDYGFPWTFGQGTKVEIKRTVAAPSVFIFPPSDEQLKSGTASVVCLLNNFYPREAKVQWKVDNALQSGNSQESVTEQDSKDSTYSLSSTLTLSKADYEKHKVYACEVTHQGLSSPVTKSFNRGEC | 1.53 | 0.00088 | 579000 | 0.335 | 0.0013 | 3.78e+06 | ~20 | 11.2 | 11 | 0.149 | 0.461 |
| bispecific antibody Ab 5466 (bispecific antibody, human IgG4 S228P, kappa, lambda, F234A L235A) heavy 1: EVQLVESGGGLVQPGGSLKLSCAASGFTFNTYAMNWVRQASGKGLEWVGRIRSKYNAYATYYAASVKGRFTISRDDSKNTAYLQMNSLKTEDTAVYYCTRHGNFGNSYVSWFAYWGQGTLVTVSSASTKGPSVFPLAPCSRSTSESTAALGCLVKDYFPEPVTVSWNSGALTSGVHTFPAVLQSSGLYSLSSVVTVPSSSLGTKTYTCNVDHKPSNTKVDKRVESKYGPPCPPCPAPEAAGGPSVFLFPPKPKDTLMISRTPEVTCVVVDVSQEDPEVQFNWYVDGVEVHNAKTKPREEQFNSTYRVVSVLTVLHQDWLNGKEYKCKVSNKGLPSSIEKTISKAKGQPREPQVYTLPPSQEEMTKNQVSLTCLVKGFYPSDIAVEWESNGQPENNYKTTPPVLDSDGSFLLYSKLTVDKSRWQEGNVFSCSVMHEALHNHYTQKSLSLSLGK light 1: QAVVTQEPSLTVSPGGTVTLTCRSSTGAVTTSNYANWVQQKPGQAPRGLIGGTNKRAPGTPARFSGSLLGGKAALTLSGAQPEDEAEYYCALWYSNLWVFGGGTKLTVLGQPKAAPSVTLFPPSSEELQANKATLVCLISDFYPGAVTVAWKADSSPVKAGVETTTPSKQSNNKYAASSYLSLTPEQWKSHRSYSCQVTHEGSTVEKTVAPTECS heavy 2: not shown light 2: not shown | 13.7 | 0.0051 | 371000 | 1.69 | 0.0049 | 2.88e+06 | ~70 | 25.3 | 27.9 | 2.43 | 1.72 |
